# Experimental data from patent publication US20260184777A1 (BEIJING SUNGEN BIOMEDICAL TECHNOLOGY, published 2026).
# T1: human S100A8/A9 heterodimeric antigen, His-tagged (hS100A8/A9-His) (human, UniProt P05109 1-93; P06702 1-114)
# T1 sequence 1: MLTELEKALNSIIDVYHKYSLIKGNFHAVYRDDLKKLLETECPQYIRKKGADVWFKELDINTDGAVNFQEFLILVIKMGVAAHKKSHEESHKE
# T1 sequence 2: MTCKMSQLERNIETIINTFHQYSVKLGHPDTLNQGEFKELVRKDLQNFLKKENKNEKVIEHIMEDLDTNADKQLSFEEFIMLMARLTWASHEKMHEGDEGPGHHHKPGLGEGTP
# Target: T1, human S100A8/A9 heterodimeric antigen, …
# Assay: cell-based or functional assay
row,"Relative IC50 (IC50 relative to CM-1), IL-6 release from hS100A8/A9-activated human PBMCs",Binder
1,0.687 relative to CM-1,"CM-103 (antibody, human IgG4 S228P, lambda, V domains shown) VH: EVQLVESGGGLVQPGGSLRLSCAASGFTFSDYAMSWVRQAPGKGLEWVSAISGSGGSHYYAASVKGRFTISRDNSKNTLYLQMNSLRAEDTAVYYCARKYRPSRVFDAWGQGTLVTVSS VL: SYELTQPPSVSVAPGQTARITCSGDALGDKYASWYQQKPGQAPVLVIYEDAKRPSGIPERFSGSNSGNTATLTISGTQAEDEADYYCQSNDADARWVFGGGTKLTVLG"
2,0.986 relative to CM-1,"CM-116 (antibody, human IgG4 S228P, lambda, V domains shown) VH: EVQLVESGGGLVQPGGSLRLSCAASGFTFSDYAMSWVRQAPGKGLEWVSAISGSGGSTYYAASVKGRFTISRDNSKNTLYLQMNSLRAEDTAVYYCARKYRPSRVFDFWGQGTLVTVSS VL: SYELTQPPSVSVAPGQTARITCSGDALGDKYASWYQQKPGQAPVLVIYEDAKRPSGIPERFSGSNSGNTATLTISGTQAEDEADYYCQSNDADAWWVFGGGTKLTVLG"
3,0.738 relative to CM-1,"CM-112 (antibody, human IgG4 S228P, lambda, V domains shown) VH: EVQLVESGGGLVQPGGSLRLSCAASGFTFSSYAMSWVRQAPGKGLEWVSAISGSGGSHYYAASVKGRFTISRDNSKNTLYLQMNSLRAEDTAVYYCARKYRPSRVFDAWGQGTLVTVSS VL: SYELTQPPSVSVAPGQTARITCSGDALHDKYASWYQQKPGQAPVLVIYEDAKRPSGIPERFSGSNSGNTATLTISGTQAEDEADYYCQSNDADAVWVFGGGTKLTVLG"
4,0.386 relative to CM-1,"CM-107 (antibody, human IgG4 S228P, lambda, V domains shown) VH: EVQLVESGGGLVQPGGSLRLSCAASGFTFSDYAMSWVRQAPGKGLEWVSAISGSGGSHYYAASVKGRFTISRDNSKNTLYLQMNSLRAEDTAVYYCARKYRPSRVFDAWGQGTLVTVSS VL: SYELTQPPSVSVAPGQTARITCSGDALGDKYASWYQQKPGQAPVLVIYEHHKRPSGIPERFSGSNSGNTATLTISGTQAEDEADYYCQSNDADAVWVFGGGTKLTVLG"
5,1.76 relative to CM-1,"CM-104 (antibody, human IgG4 S228P, lambda, V domains shown) VH: EVQLVESGGGLVQPGGSLRLSCAASGFTFSDYAMSWVRQAPGKGLEWVSAISGSGGSHYYAASVKGRFTISRDNSKNTLYLQMNSLRAEDTAVYYCARKYRPSRVFDAWGQGTLVTVSS VL: SYELTQPPSVSVAPGQTARITCSGDALGDKYASWYQQKPGQAPVLVIYEDAKRPSGIPERFSGSNSGNTATLTISGTQAEDEADYYCQSNDADAYWVFGGGTKLTVLG"
6,0.352 relative to CM-1,"CM-106 (antibody, human IgG4 S228P, lambda, V domains shown) VH: EVQLVESGGGLVQPGGSLRLSCAASGFTFSDYAMSWVRQAPGKGLEWVSAISGSGGSHYYAASVKGRFTISRDNSKNTLYLQMNSLRAEDTAVYYCARKYRPSRVFDAWGQGTLVTVSS VL: SYELTQPPSVSVAPGQTARITCSGDALHDKYASWYQQKPGQAPVLVIYEDAKRPSGIPERFSGSNSGNTATLTISGTQAEDEADYYCQSNDADAYWVFGGGTKLTVLG"
7,0.878 relative to CM-1,"CM-110 (antibody, human IgG4 S228P, lambda, V domains shown) VH: EVQLVESGGGLVQPGGSLRLSCAASGFTFSSYAMAWVRQAPGKGLEWVSAISGSGGSTYYAASVKGRFTISRDNSKNTLYLQMNSLRAEDTAVYYCARKYRPSRVFDAWGQGTLVTVSS VL: SYELTQPPSVSVAPGQTARITCSGDALHDKYASWYQQKPGQAPVLVIYEDAKRPSGIPERFSGSNSGNTATLTISGTQAEDEADYYCQSNDADAVWVFGGGTKLTVLG"
8,1.5 relative to CM-1,"CM-108 (antibody, human IgG4 S228P, lambda, V domains shown) VH: EVQLVESGGGLVQPGGSLRLSCAASGFTFSDYAMSWVRQAPGKGLEWVSAISGSGGSHYYAASVKGRFTISRDNSKNTLYLQMNSLRAEDTAVYYCARKYRPSRVFDAWGQGTLVTVSS VL: SYELTQPPSVSVAPGQTARITCSGDALGDKYASWYQQKPGQAPVLVIYEDAKRPDGIPERFSGSNSGNTATLTISGTQAEDEADYYCQSNDADAYWVFGGGTKLTVLG"
9,1.34 relative to CM-1,"CM-115 (antibody, human IgG4 S228P, lambda, V domains shown) VH: EVQLVESGGGLVQPGGSLRLSCAASGFTWSDYAMSWVRQAPGKGLEWVSAISGSGGSTYYAASVKGRFTISRDNSKNTLYLQMNSLRAEDTAVYYCARKYRPSRVFDAWGQGTLVTVSS VL: SYELTQPPSVSVAPGQTARITCSGDALGDKYASWYQQKPGQAPVLVIYEDAKRPSGIPERFSGSNSGNTATLTISGTQAEDEADYYCQSNDADAWWVFGGGTKLTVLG"
10,0.367 relative to CM-1,"CM-117 (antibody, human IgG4 S228P, lambda, V domains shown) VH: EVQLVESGGGLVQPGGSLRLSCAASGFTFSDYAMSWVRQAPGKGLEWVSAISGSGGSTYYAASVKGRFTISRDNSKNTLYLQMNSLRAEDTAVYYCARKYRPSRVFDCWGQGTLVTVSS VL: SYELTQPPSVSVAPGQTARITCSGDALGDKYASWYQQKPGQAPVLVIYEDAKRPSGIPERFSGSNSGNTATLTISGTQAEDEADYYCQSNDADAWWVFGGGTKLTVLG"
11,0.899 relative to CM-1,"CM-114 (antibody, human IgG4 S228P, lambda, V domains shown) VH: EVQLVESGGGLVQPGGSLRLSCAASGFTFSSYAMSWVRQAPGKGLEWVSAISGSGGSHYYAASVKGRFTISRDNSKNTLYLQMNSLRAEDTAVYYCARKYRPSRVFDAWGQGTLVTVSS VL: SYELTQPPSVSVAPGQTARITCSGDALGDKYASWYQQKPGQAPVLVIYEHHKRPSGIPERFSGSNSGNTATLTISGTQAEDEADYYCQSNDADAVWVFGGGTKLTVLG"
12,0.475 relative to CM-1,"CM-109 (antibody, human IgG4 S228P, lambda, V domains shown) VH: EVQLVESGGGLVQPGGSLRLSCAASGFTFSDYAMSWVRQAPGKGLEWVSAISGSGGSHYYAASVKGRFTISRDNSKNTLYLQMNSLRAEDTAVYYCARKYRPSRVFDAWGQGTLVTVSS VL: SYELTQPPSVSVAPGQTARITCSGDALHDKYASWYQQKPGQAPVLVIYEHHKRPSGIPERFSGSNSGNTATLTISGTQAEDEADYYCQSNDADAVWVFGGGTKLTVLG"
13,0.442 relative to CM-1,"CM-113 (antibody, human IgG4 S228P, lambda, V domains shown) VH: EVQLVESGGGLVQPGGSLRLSCAASGFTFSSYAMSWVRQAPGKGLEWVSAISGSGGSHYYAASVKGRFTISRDNSKNTLYLQMNSLRAEDTAVYYCARKYRPSRVFDAWGQGTLVTVSS VL: SYELTQPPSVSVAPGQTARITCSGDALHDKYAAWYQQKPGQAPVLVIYEDAKRPSGIPERFSGSNSGNTATLTISGTQAEDEADYYCQSNDADAVWVFGGGTKLTVLG"
14,1.08 relative to CM-1,"CM-111 (antibody, human IgG4 S228P, lambda, V domains shown) VH: EVQLVESGGGLVQPGGSLRLSCAASGFTFSSYAMSWVRQAPGKGLEWVSAISGHGGSTYYAASVKGRFTISRDNSKNTLYLQMNSLRAEDTAVYYCARKYRPSRVFDAWGQGTLVTVSS VL: SYELTQPPSVSVAPGQTARITCSGDALGDKYAAWYQQKPGQAPVLVIYEDAKRPSGIPERFSGSNSGNTATLTISGTQAEDEADYYCQSNDADAVWVFGGGTKLTVLG"
15,1.5 relative to CM-1,"CM-105 (antibody, human IgG4 S228P, lambda, V domains shown) VH: EVQLVESGGGLVQPGGSLRLSCAASGFTFSDYAMSWVRQAPGKGLEWVSAISGSGGSHYYAASVKGRFTISRDNSKNTLYLQMNSLRAEDTAVYYCARKYRPSRVFDAWGQGTLVTVSS VL: SYELTQPPSVSVAPGQTARITCSGDALHDKYAAWYQQKPGQAPVLVIYEDAKRPSGIPERFSGSNSGNTATLTISGTQAEDEADYYCQSNDADAVWVFGGGTKLTVLG"
